Measured values reported in PMC5737521 (Nucleic Acids Research, 2017).

Legend:
[1] = target: the molecule itself; assay: crystal structure
[2] = target: T1, H. sapiens JunD bZIP domain (residues Q266-V332) (human, UniProt P17535 266-332); assay: crystal structure
T1 sequence: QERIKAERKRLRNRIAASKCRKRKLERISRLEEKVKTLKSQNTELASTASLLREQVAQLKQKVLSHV

[3] = target: the molecule itself; assay: fluorescence polarisation
[4] = target: T2, FosB bZIP domain;JunD bZIP domain (Homo sapiens (cloned from identical Mus …, UniProt P53539;P17535 153-219;266-332, |)); assay: fluorescence polarization
T2 sequence 1: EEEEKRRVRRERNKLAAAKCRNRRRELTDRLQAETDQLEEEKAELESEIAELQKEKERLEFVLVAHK
T2 sequence 2: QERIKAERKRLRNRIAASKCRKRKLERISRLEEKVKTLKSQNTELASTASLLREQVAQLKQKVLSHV

B1: Homo sapiens FosB bZIP domain (residues E153-K219) (domain or fragment)
chain: EEEEKRRVRRERNKLAAAKCRNRRRELTDRLQAETDQLEEEKAELESEIAELQKEKERLEFVLVAHK
B1: binds [1]; binds [2].

B2: reduced FosB/JunD bZIP heterodimer (FJ^red) (complex)
chain 1: EEEEKRRVRRERNKLAAAKCRNRRRELTDRLQAETDQLEEEKAELESEIAELQKEKERLEFVLVAHK
chain 2: QERIKAERKRLRNRIAASKCRKRKLERISRLEEKVKTLKSQNTELASTASLLREQVAQLKQKVLSHV
B2: binds [3].

B3: oxidized form of FosB/JunD bZIP heterodimer (FJ^oxi) (complex)
chain 1: EEEEKRRVRRERNKLAAAKCRNRRRELTDRLQAETDQLEEEKAELESEIAELQKEKERLEFVLVAHK
chain 2: QERIKAERKRLRNRIAASKCRKRKLERISRLEEKVKTLKSQNTELASTASLLREQVAQLKQKVLSHV
B3: binds [1].

B4: TAMRA AP-1 19-mer (cyclin-dependent kinase 5 promoter) (dsDNA)
DNA 1: CGTCGGTGACTCAAAACAC
DNA 2: GTGTTTTGAGTCACCGACG
B4: binds [4].
